B1: Myc-Mal-TIR wild type (TIR domain of human MyD88 adaptor-like protein, residues 79-221, double-tagged with His6 and Myc) [human] / GST-Mal-TIR (TIR domain of human Mal, residues 79-221, GST fusion) [human] (parent)
chain 1: SSRWSKDYDVCVCHSEEDLVAAQDLVSYLEGSTASLRCFLQLRDATPGGAIVSELCQALSSSHCRVLLITPGFLQDPWCKYQMLQALTEAPGAEGCTIPLLSGLSRAAYPPELRFMYYVDGRGPDGGFRQVKEAVMRYLQTLS
chain 2: B1 chain 1

Variants of: B1
Test: GST pull-down, quantified Western blot
Settings: with GST-Mal-TIR (TIR domain of human Mal, residues 79-221, GST fusion) [human]; n = 3 separate experiments; parent: 1; read off a plot

Row | ratio to parent | Variant
1 | 0.91 | chain 1 R114A
2 | 0.41 | chain 1 Y81A
3 | 0.6 | chain 1 W78A
4 | 1.2 | chain 1 D9A
